The values that follow come from article PMC8113450.

In this experiment the target is wild-type human Elp123 sub-complex (hElp123WT) (human) (UniProt O95163). The experiment in a line: SEC; gel filtration of purified hElp123 on Superose 6 Increase 10/300 GL; 20 mM HEPES, 150 mM NaCl, 5 mM DTT, pH 8.0; Elp1-Elp2-Elp3 trimer to dimer of trimers. A general note: SEC sorts molecules by how far they enter the pores of the column.

On to “wild-type human Elp123 sub-complex (hElp123WT), O95163 1-1332; Q6IA86 1-826; Q9H9T3 1-547”, for which the stoichiometry N – broadly, a count of units in the complex or per binding partner – is 2.
